Molecular target: PFV PR-RT (protease-reverse transcriptase) (prototype foamy virus, UniProt P14350 1-751)
Assay: fluorescence anisotropy; 10 mM EDTA, no Mg2+; 5 nM substrate; 50 mM Tris/HCl pH 8.0, 80 mM KCl, 10 mM EDTA, 0.5 mM DTT, 25 C
Details: protein: recombinant; label: 5'-DY647 on RNA; 24 bp hybrid; RNA template overhangs 5' 5 nt and 3' 11 nt

B1: 24/40-mer DNA/RNA primer/template (DNA:RNA)
RNA: CUAAUUCCGCUUUCCCCUCUCCUGGUGAUCCUUUCCAUCC
DNA: ATCACCAGGAGAGGGGAAAGCGGA
Kd: 9.1 ± 1.7 nM

— publication PMC3305377, “Insights into the structure and activity of prototype foamy virus RNase H”
